From PMC7849368 (Genes & Development, 2021)

Target: T1, Esc2, purified, as used in microscale thermophoresis (budding yeast, UniProt Q06340 1-456)
T1 sequence: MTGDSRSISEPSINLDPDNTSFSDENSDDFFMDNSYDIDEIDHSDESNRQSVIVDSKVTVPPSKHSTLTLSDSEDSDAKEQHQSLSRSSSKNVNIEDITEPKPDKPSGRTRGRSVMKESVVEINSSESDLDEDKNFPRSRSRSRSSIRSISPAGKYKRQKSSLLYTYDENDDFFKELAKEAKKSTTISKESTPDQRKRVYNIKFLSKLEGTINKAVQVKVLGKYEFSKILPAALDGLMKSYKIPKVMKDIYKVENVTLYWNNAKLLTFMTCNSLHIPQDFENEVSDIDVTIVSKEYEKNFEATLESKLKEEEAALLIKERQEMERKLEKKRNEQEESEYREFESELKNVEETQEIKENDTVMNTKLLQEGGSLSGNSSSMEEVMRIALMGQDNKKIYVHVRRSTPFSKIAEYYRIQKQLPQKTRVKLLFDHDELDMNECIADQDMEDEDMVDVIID
Test: MST

B1: Ubc9, purified (enzyme)
chain: MSSLCLQRLQEERKKWRKDHPFGFYAKPVKKADGSMDLQKWEAGIPGKEGTNWAGGVYPITVEYPNEYPSKPPKVKFPAGFYHPNVYPSGTICLSILNEDQDWRPAITLKQIVLGVQDLLDSPNPNSPAQEPAWRSFSRNKAEYDKKVLLQAKQYSK
modifications: RED-tris-NTA dye on the His tag (MST only)
- Kd: 372 nM
